The results in this text go back to the supplement of paper PMC9112550, “Optimization of the antimicrobial peptide Bac7 by deep mutational scanning” (BMC Biology, 2022).

The test system of this data set is Escherichia coli TOP10. In words: shrunken log2 fold change of peptide-encoding DNA abundance (4.5 h post-induction vs induction); higher = less antimicrobial activity (less host growth inhibition). The note with it: time post-induction: 4.5 h; library: site-saturation at positions 5, 18, 19, 20.
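Also: peptides expressed intracellularly from a pBAD plasmid library in pooled LB shake-flask culture, induced with 0.3% L-arabinose, DNA abundance read by NGS, three biological replicates, DESeq2 with apeglm shrinkage.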

RRIRTRPPRLPRPRPRPSMDPRP: the “shrunken log2 fold change” value was 2.57e-05.

As to RRIRRRPPRLPRPRPRPTTYPRP, the “shrunken log2 fold change” value was -0.221.

As to RRIRVRPPRLPRPRPRPMQTPRP, the “shrunken log2 fold change” value was 0.00859.

In the case of RRIRRRPPRLPRPRPRPCLPPRP, the “shrunken log2 fold change” value was -0.132.

With RRIRMRPPRLPRPRPRPHDHPRP, the “shrunken log2 fold change” value was -0.0397.

For RRIRKRPPRLPRPRPRPIEKPRP, the “shrunken log2 fold change” value was determined as 0.694.

Regarding RRIRVRPPRLPRPRPRPQNEPRP, the “shrunken log2 fold change” value is -0.303.

For the sequence RRIRKRPPRLPRPRPRPVWFPRP, the “shrunken log2 fold change” value was found to be 0.142.

Consider RRIRARPPRLPRPRPRPRQNPRP, for which the “shrunken log2 fold change” value amounted to 0.723.

In the case of RRIRYRPPRLPRPRPRPNNGPRP, the “shrunken log2 fold change” value is -0.156.

As for RRIRHRPPRLPRPRPRPASHPRP, the “shrunken log2 fold change” value is 0.0269.

For RRIRVRPPRLPRPRPRPDNAPRP, the “shrunken log2 fold change” value is -0.501.

RRIRLRPPRLPRPRPRPSLTPRP: the “shrunken log2 fold change” value is -0.0866.

Take RRIRVRPPRLPRPRPRPHQGPRP: the “shrunken log2 fold change” value stood at 0.105.

On to RRIRNRPPRLPRPRPRPQMQPRP, for which the “shrunken log2 fold change” value is -0.0154.

Consider RRIRARPPRLPRPRPRPNLVPRP, for which the “shrunken log2 fold change” value is -0.0779.

Take RRIRARPPRLPRPRPRPTCVPRP: the “shrunken log2 fold change” value was determined as 0.698.

In the case of RRIRGRPPRLPRPRPRPSQQPRP, the “shrunken log2 fold change” value is -0.147.

Take RRIRTRPPRLPRPRPRPETWPRP: the “shrunken log2 fold change” value is -0.0622.

With RRIRNRPPRLPRPRPRPCGIPRP, the “shrunken log2 fold change” value is -0.138.

Take RRIRHRPPRLPRPRPRPEFPPRP: the “shrunken log2 fold change” value came to 0.0962.

Consider RRIRRRPPRLPRPRPRPRPKPRP, for which the “shrunken log2 fold change” value came to 1.05.

With RRIRARPPRLPRPRPRPAAYPRP, the “shrunken log2 fold change” value is 0.412.

Turning to RRIRDRPPRLPRPRPRPGTMPRP, the “shrunken log2 fold change” value is -0.302.

As for RRIRYRPPRLPRPRPRPQANPRP, the “shrunken log2 fold change” value was -0.694.

Regarding RRIRWRPPRLPRPRPRPWTIPRP, the “shrunken log2 fold change” value was -0.0951.

With RRIRNRPPRLPRPRPRPFIPPRP, the “shrunken log2 fold change” value was -0.0923.

For the sequence RRIRGRPPRLPRPRPRPTMCPRP, the “shrunken log2 fold change” value is 0.805.

For RRIRARPPRLPRPRPRPFEVPRP, the “shrunken log2 fold change” value was 0.455.

Consider RRIRLRPPRLPRPRPRPICSPRP, for which the “shrunken log2 fold change” value was -0.0252.

As to RRIRRRPPRLPRPRPRPERVPRP, the “shrunken log2 fold change” value was 0.125.

With RRIRSRPPRLPRPRPRPEQLPRP, the “shrunken log2 fold change” value is -0.0808.

With RRIRYRPPRLPRPRPRPVGAPRP, the “shrunken log2 fold change” value worked out at 0.252.

Consider RRIRWRPPRLPRPRPRPHMCPRP, for which the “shrunken log2 fold change” value is -0.00659.

Regarding RRIRRRPPRLPRPRPRPAVQPRP, the “shrunken log2 fold change” value was 0.0814.

Take RRIRLRPPRLPRPRPRPYKKPRP: the “shrunken log2 fold change” value is -0.404.

Turning to RRIRRRPPRLPRPRPRPSDIPRP, the “shrunken log2 fold change” value was -1.08.

Turning to RRIRHRPPRLPRPRPRPDRNPRP, the “shrunken log2 fold change” value was -0.0482.

Consider RRIRHRPPRLPRPRPRPPNSPRP, for which the “shrunken log2 fold change” value is -0.201.

In the case of RRIRQRPPRLPRPRPRPILDPRP, the “shrunken log2 fold change” value amounted to 0.0277.

RRIRRRPPRLPRPRPRPGFSPRP: the “shrunken log2 fold change” value is 0.131.

RRIRDRPPRLPRPRPRPWKNPRP: the “shrunken log2 fold change” value is -0.0182.

On to RRIRHRPPRLPRPRPRPGHKPRP, for which the “shrunken log2 fold change” value stood at 0.0956.

Take RRIRKRPPRLPRPRPRPFGCPRP: the “shrunken log2 fold change” value worked out at 0.0495.

For the sequence RRIRVRPPRLPRPRPRPRNMPRP, the “shrunken log2 fold change” value was -0.318.

For RRIRFRPPRLPRPRPRPQSPPRP, the “shrunken log2 fold change” value was -0.13.

Turning to RRIRMRPPRLPRPRPRPQSEPRP, the “shrunken log2 fold change” value is 0.446.

For RRIRLRPPRLPRPRPRPIEFPRP, the “shrunken log2 fold change” value was -0.449.

On to RRIRTRPPRLPRPRPRPTQHPRP, for which the “shrunken log2 fold change” value stood at 0.22.

Take RRIRIRPPRLPRPRPRPKSQPRP: the “shrunken log2 fold change” value was -0.0352.

As to RRIRVRPPRLPRPRPRPDWWPRP, the “shrunken log2 fold change” value is -0.0161.

RRIRCRPPRLPRPRPRPQFQPRP: the “shrunken log2 fold change” value is -0.606.

For RRIRRRPPRLPRPRPRPPYEPRP, the “shrunken log2 fold change” value came to 0.492.

In the case of RRIRSRPPRLPRPRPRPDVKPRP, the “shrunken log2 fold change” value is -0.0928.

In the case of RRIRGRPPRLPRPRPRPRRHPRP, the “shrunken log2 fold change” value is 0.612.

For RRIRQRPPRLPRPRPRPSNEPRP, the “shrunken log2 fold change” value is -0.5.

Turning to RRIRHRPPRLPRPRPRPQSWPRP, the “shrunken log2 fold change” value turned out to be 0.0657.

Regarding RRIRDRPPRLPRPRPRPPTTPRP, the “shrunken log2 fold change” value was determined as 0.151.

For RRIRNRPPRLPRPRPRPRMIPRP, the “shrunken log2 fold change” value came out at 0.0468.

Turning to RRIRKRPPRLPRPRPRPNAEPRP, the “shrunken log2 fold change” value came to 0.531.

Take RRIRVRPPRLPRPRPRPHPNPRP: the “shrunken log2 fold change” value is -0.00326.

For RRIRWRPPRLPRPRPRPSKWPRP, the “shrunken log2 fold change” value is -0.327.
